Values quoted from earlier work, collected in US20040162315A1, “Use of compounds for treating conditions resulting from injury to the corneal nerve after LASIK and other ocular surgeries or trauma” (priority 2002, published 2004).

System: axotomized ocular nerves
Settings: single intravitreal injection of 5 μg, administered during the first five days after injury

B1: BDNF: neurotrophin family peptide, TrkB receptor-selective ligand (protein, UniProt P23560 19-247, looked up)
Neurotrophic factor BDNF …: APMKEANIRGQGGLAYPGVRTHGTLESVNGPKAGSRGLTSLADTFEHVIEELLDEDQKVRPNEENNKDADLYTSRVMLSSQVPLEPPLLFLLEEYKNYLDAANMSMRVRRHSDPARRGELSVCDSISEWVTAADKKTAVDMSGGTVTVLEKVPVSKGQLKQYFYETKCNPMGYTKEGCRGIDKRHWNSQCRTTQSYVRALTMDSKKRIGWRFIRIDTSCVCTLTIKRGR
- death of the axotomized ocular nerves: prevented the death of the axotomized ocular nerves
